B1: "Secreted effector protein EspF(U)" (Escherichia coli O157:H7), P0DJ88 (parent)
chain: MINNVSSLFPTVNRNITAVYKKSSFSVSPQKITLNPVKISSPFSPSSSSISATTLFRAPNAHSASFHRQSTAESSLHQQLPNVRQRLIQHLAEHGIKPARSMAEHIPPAPNWPAPPPPVQNEQSRPLPDVAQRLVQHLAEHGIQPARNMAEHIPPAPNWPAPPLPVQNEQSRPLPDVAQRLVQHLAEHGIQPARSMAEHIPPAPNWPAPPPPVQNEQSRPLPDVAQRLMQHLAEHGIQPARNMAEHIPPAPNWPAPTPPVQNEQSRPLPDVAQRLMQHLAEHGIQPARNMAEHIPPAPNWPAPTPPVQNEQSRPLPDVAQRLMQHLAEHGINTSKRS
partner: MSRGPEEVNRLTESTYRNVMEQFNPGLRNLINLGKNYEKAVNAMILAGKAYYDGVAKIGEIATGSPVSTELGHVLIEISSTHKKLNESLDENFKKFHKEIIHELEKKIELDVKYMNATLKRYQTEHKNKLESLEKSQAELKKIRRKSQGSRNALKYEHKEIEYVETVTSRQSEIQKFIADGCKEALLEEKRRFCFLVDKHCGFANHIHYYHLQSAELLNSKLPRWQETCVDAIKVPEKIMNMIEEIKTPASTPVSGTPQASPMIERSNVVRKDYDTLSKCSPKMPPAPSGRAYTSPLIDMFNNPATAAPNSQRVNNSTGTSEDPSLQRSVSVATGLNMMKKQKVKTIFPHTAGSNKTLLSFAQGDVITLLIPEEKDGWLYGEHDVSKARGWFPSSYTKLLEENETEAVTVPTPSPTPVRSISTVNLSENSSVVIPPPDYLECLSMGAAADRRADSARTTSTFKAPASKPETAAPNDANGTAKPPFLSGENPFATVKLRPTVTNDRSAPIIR

Variants of: B1
Conditions: with bi2l1_human BAIAP2L1, Q9UHR4

| Variant | effect of a mutation on the interaction |
| --- | --- |
| N299A;W300A;P301A | decreasing interaction |
| N299G;W300G;P301G | decreasing interaction |
| N299P;W300P | decreasing interaction |
